Experimental data taken from the supplement of paper PMC12764529.
± gives the half width of the 95% confidence interval.

Tests used:
[1] = folding stability dG unfold (combined trypsin and chymotrypsin); higher = more stable
In short: (§1)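 K50 was inferred by Bayesian fitting of sequencing counts obtained after protease digestion of designed mini-proteins. Unfolding free energy was derived by comparison with a sequence-predicted unfolded-state K50 and a shared folded-state K50, for each protease or both combined. The mini-proteins were under 80 residues, had no cysteine, were carried in a PA-tagged cDNA display construct, and were kept only if AlphaFold2 dimer inter-PAE exceeded 15.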

[2] = folding stability dG unfold from chymotrypsin proteolysis; higher = more stable
In short: as §1

| Sequence | folding stability dG unfold [1] | folding stability dG unfold [2] |
| --- | --- | --- |
| SAGGSAGGSAGPRVKFRFPGQEHTIPPGRRVYFGNGKKFDPGEPLDDIPPDNITPVEIEPSAGGSAGGSAGG [r17_511_TrROS] | -0.609 ± 0.15 kcal/mol | -0.297 ± 0.18 kcal/mol |
| SAGGSAGGSAGRKTLPMRNPNNGHEVTAEIEDENGKPIKIEAPMNSPEMRDMARDFAKKISAGGSAGGSAGG [r11_119_TrROS] | -0.154 ± 0.18 kcal/mol | 0.355 ± 0.13 kcal/mol |
| SAGGSAGGSAGRRSVPEEVVEAIAEELPREGLTPKSIEVVEGEDEFEAVIEYDDRTITVAGSAGGSAGGSAG [r3_395_JUSTAS] | -0.101 ± 0.1 kcal/mol | 0.492 ± 0.023 kcal/mol |
| SAGGSAGGSAGSMVTPVTLERYVYIEPTPDGVERKRVVPVKVKETVTVDAAGNVTTTTEVLLSAGGSAGGSA [r18_284_JUSTAS] | < -1 kcal/mol | -0.871 ± 0.31 kcal/mol |
| SAGGSAGGSAGSPNYIPKEVTIKVEGEGKPVEVKIKLTTSPEGKPASEEEILKKAEELLKSAGGSAGGSAGG [r17_373_JUSTAS] | 0.0156 ± 0.34 kcal/mol | 0.372 ± 0.058 kcal/mol |
| SAGGSAGGSAGSSSSAVRESFQKSPTNVVTRTVTTYDANPSVLSTSSTTVPLSSVPPELLSAGGSAGGSAGG [r11_493_JUSTAS] | 0.00507 ± 0.15 kcal/mol | 0.44 ± 0.13 kcal/mol |
| SAGGSAGGSAGSTTTRTVELPPGTSLEEVRARLEAEGYTGVVITEVERPPGPRLRVTVVGSAGGSAGGSAGG [r11_800_JUSTAS] | -0.0782 ± 0.22 kcal/mol | 0.293 ± 0.06 kcal/mol |
| SAGGSAGGSAGVVYPLAGRPVRIDTSATDSLVVTTEPPDGTRTTRTYPDMDLDEVLAALASAGGSAGGSAGG [r11_934_JUSTAS] | 0.0129 ± 0.12 kcal/mol | 0.639 ± 0.072 kcal/mol |
| SAGGSAGGSAGYKPDPDGQYTQEMRLPREPPRIRITIPMSPNDPDKAQKFINNLAEEFGISAGGSAGGSAGG [r17_501_TrROS] | -0.32 ± 0.32 kcal/mol | -0.0614 ± 0.64 kcal/mol |
| SAGGSAGGSAIKIETQGTPEEAREFAKDFANKNPELLENMKIDVITWRPPEPKYTPNGKPKSAGGSAGGSAG [r3_89_TrROS] | -0.759 ± 0.24 kcal/mol | -0.104 ± 0.2 kcal/mol |
| SAGGSAGGSAITIKELAKEGYTIEIRPPDGKKETFKPGDSVDDPAEEFDLPPNWRIEIRPPSAGGSAGGSAG [r3_216_TrROS] | < -1 kcal/mol | -0.382 ± 0.3 kcal/mol |
| SAGGSAGGSAKNTASLKKDDGFVAYNPKTGKYVAEVEVVKDDKDNIDLPLPNGDEVEIDAVGSAGGSAGGSA [r18_363_TrMRF] | -0.846 ± 0.44 kcal/mol | -0.54 ± 0.42 kcal/mol |
| SAGGSAGGSALLEEAGALAAARGWDVEVSPGPVVTVRSPAGREVTITREGDELTVTERELPGDRSAGGSAGG [r6_523_JUSTAS] | -0.308 ± 0.35 kcal/mol | 0.466 ± 0.18 kcal/mol |
| SAGGSAGGSALRPDEPFLVRVRIVDPRPGEGPPVERELVLPLEAILRLIPPGAGADVELLPSAGGSAGGSAG [r3_223_TrMRF] | < -1 kcal/mol | -0.747 ± 0.94 kcal/mol |
| SAGGSAGGSAPKFDLRPEVFPLEDDSFLFVSRLLDPDKRLLTLVKVPPNGGLELGDVLLLDSAGGSAGGSAG [r3_165_TrMRF] | -0.829 ± 0.33 kcal/mol | -0.176 ± 0.3 kcal/mol |
| SAGGSAGGSASSVSSLSEETLPDGKPVLVRKETVYDPKHGLTGLSVTYYTLGGKKLKTEVVSAGGSAGGSAG [r3_154_JUSTAS] | -0.698 ± 0.22 kcal/mol | -0.477 ± 0.26 kcal/mol |
| SAGGSAGGSAVVYDENTAIVKTPNKDYLLKVKVGDTVDIPDSAGIPVPVKVEKDFPIPPSELSAGGSAGGSA [r18_244_JUSTAS] | -0.943 ± 0.43 kcal/mol | -0.38 ± 0.12 kcal/mol |
| SAGGSAGGSAWYIRIKSPELRKKLKNAGGIKPTEREPNWVTFKFPGMPPKKRDKIRELIKDSAGGSAGGSAG [r3_398_TrROS] | -0.969 ± 0.26 kcal/mol | -0.644 ± 0.49 kcal/mol |

| Sequence | folding stability dG unfold [1] | folding stability dG unfold [2] |
| --- | --- | --- |
| SAGGSAGGSGEPRTVLVEVLYDDKPVLIPVTADSEEALPEVARAAIEPLAEKYPHVEIPLPTESAGGSAGGS [r12_230_TrMRF] | -0.66 ± 0.52 kcal/mol | 0.164 ± 0.11 kcal/mol |
| SAGGSAGGSGSMSLSESPTSRTLTLTYPDSVVVTEYDPETGPPVTRFVSREDGVPVVYPAELLSAGGSAGGS [r12_632_JUSTAS] | -0.414 ± 0.09 kcal/mol | -0.0818 ± 0.1 kcal/mol |
| SAGGSAGGSGTSTSSSGPSTVTITLHTDSPVTLTVPPETTEELAAELKARGYNLEVKVTPAPASAGGSAGGS [r20_124_JUSTAS] | -0.195 ± 0.11 kcal/mol | 0.161 ± 0.12 kcal/mol |
| SAGGSAGGSGYPGLPMPVLRVRFAGDPEPVFIPVPADRPDVARAAAEELRALRPDVPVELELGSAGGSAGGS [r12_601_TrMRF] | 0.107 ± 0.057 kcal/mol | 0.823 ± 0.045 kcal/mol |
| SAGGSAGGSGYSVSVSEDFSSSPETRTVTTTTTSPSSGPLVTTTTTTTSPIPPRTPAEVAAAASAGGSAGGS [r12_841_JUSTAS] | 0.327 ± 0.048 kcal/mol | 0.697 ± 0.029 kcal/mol |
| SAGGSAGGSIKITLETETETYLDPEDPNRPVTKVKAVKPTIEVPEENPEKLKELAEKLGLELESAGGSAGGS [r12_249_TrMRF] | 0.232 ± 0.1 kcal/mol | 0.723 ± 0.034 kcal/mol |
| SAGGSAGGSKIKSITIDPEAGKVTIEVDKDTPPKPLPSVKTVEEKNDGYTVTFDVKDDEEILLSAGGSAGGS [r20_37_TrMRF] | -0.39 ± 0.41 kcal/mol | 0.416 ± 0.086 kcal/mol |
| SAGGSAGGSKMKKITIEVPTEEERKALEEAIKKGEPEVEITTKNGKKIKIKKIEIKEIKIEKKSAGGSAGGS [r12_334_TrROS_Hall] | 0.758 ± 0.42 kcal/mol | 1.58 ± 0.14 kcal/mol |
| SAGGSAGGSMKLGGKPIKRVESEPLPGPSRLFYIELEDKKIPVVLEGDKLLVSPELFEWEKEGSAGGSAGGS [r20_92_TrMRF] | -0.0157 ± 0.2 kcal/mol | 0.396 ± 0.22 kcal/mol |
| SAGGSAGGSMPEKKFKAEVVEEIEDPKTGKKFYFLKDTKQIFVENKDGSRTAITIDEDKLEIVSAGGSAGGS [r12_420_TrROS_Hall] | 0.0252 ± 0.15 kcal/mol | 0.433 ± 0.098 kcal/mol |
| SAGGSAGGSMTITVETTSKDPAVAEKELTEKVKKEYPPSVKVEIDPVSSPDGVARVRATIIRESAGGSAGGS [r20_122_JUSTAS] | 0.291 ± 0.19 kcal/mol | 0.529 ± 0.09 kcal/mol |
| SAGGSAGGSMTPVHVYVPPSLSPEEARARVRAELRAALPAAEADVPLEDVEVVLRPLPPDVPLSAGGSAGGS [r12_384_JUSTAS] | < -1 kcal/mol | 0.303 ± 0.42 kcal/mol |
| SAGGSAGGSMTTLRTRLKGDGTVEIEVYEPGRIRTITLPPSEVDKIPDVEDLPRYELEGDAPESAGGSAGGS [r12_343_JUSTAS] | -0.514 ± 0.22 kcal/mol | 0.147 ± 0.21 kcal/mol |
| SAGGSAGGSMTVTLSYPDGSTVTRPLEGKSLEEAIAALPEDVTEVQVTVLEGSTPVTRTVPRPSAGGSAGGS [r12_767_JUSTAS] | 0.344 ± 0.054 kcal/mol | 0.731 ± 0.023 kcal/mol |
| SAGGSAGGSPAIRVERDPETDVLLAEIGHPDGVPALARISPATGTVTVLEGGKLVEVPLPEIGSAGGSAGGS [r12_650_TrMRF] | 0.113 ± 0.13 kcal/mol | 0.627 ± 0.018 kcal/mol |
| SAGGSAGGSPPVIHPMTVTTLAYDPATGVVDVLVDDKGKDPAVREAAEAAARAAGHPVEVVPRSAGGSAGGS [r20_157_JUSTAS] | < -1 kcal/mol | -0.637 ± 0.34 kcal/mol |
| SAGGSAGGSPVRPRTGTVYDPETGARVDVLEYEFPLPDGTPVTVTEVVVTDGDTRTTATLVDPSAGGSAGGS [r12_619_TrMRF] | -0.263 ± 0.073 kcal/mol | 0.29 ± 0.014 kcal/mol |
| SAGGSAGGSPWQVTHETVTLPEYDPSSDKPIREVTVTVTTETDPTTGATTVSLNLPSDFLRELRSAGGSAGG [r6_206_JUSTAS] | -0.123 ± 0.22 kcal/mol | 0.291 ± 0.14 kcal/mol |
